According to IntAct's records for PubMed 30523278:

B1: Protein amnionless (Homo sapiens), Q9BXJ7 (parent)
chain: MGVLGRVLLWLQLCALTQAVSKLWVPNTDFDVAANWSQNRTPCAGGAVEFPADKMVSVLVQEGHAVSDMLLPLDGELVLASGAGFGVSDVGSHLDCGAGEPAVFRDSDRFSWHDPHLWRSGDEAPGLFFVDAERVPCRHDDVFFPPSASFRVGLGPGASPVRVRSISALGRTFTRDEDLAVFLASRAGRLRFHGPGALSVGPEDCADPSGCVCGNAEAQPWICAALLQPLGGRCPQAACHSALRPQGQCCDLCGAVVLLTHGPAFDLERYRARILDTFLGLPQYHGLQVAVSKVPRSSRLREADTEIQVVLVENGPETGGAGRLARALLADVAENGEALGVLEATMRESGAHVWGSSAAGLAGGVAAAVLLALLVLLVAPPLLRRAGRLRWRRHEAAAPAGAPLGFRNPVFDVTASEELPLPRRLSLVPKAAADSTSHSYFVNPLFAGAEAEA

Variants of: B1
Conditions: with cubn_human CUBN

| Variant | effect of a mutation on the interaction |
| --- | --- |
| T41I | with no effect |
| S37A;T41I | with no effect |
| N35Q;T41I | disrupting interaction strength |
| S37A | with no effect |
| N35Q | disrupting interaction strength |

Variants of: B1
Conditions: with cubn_human CUBN
Remark: another data set of the same source

| Variant | effect of a mutation on the interaction |
| --- | --- |
| L59P | disrupting interaction strength |
| C234F | disrupting interaction strength |
| M69K | disrupting interaction strength |
| G254E | disrupting interaction strength |
